Here are results for 31 sequences from the supplement of paper PMC9170038.

This data set concerns MS2 coat protein. The experiment in a line: apparent KD of MS2 coat protein; designed switch direction (-1 OFF switch, 1 ON switch): -1; higher = weaker reporter binding. The method, boiled down:
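On Illumina chips, designed RNA switches with common flanks were made by stalled E. coli RNA polymerase. Titrations with SNAP-549-labelled MS2 coat protein, doubling from 0.7 or 1.5 nM to 3 µM, were done with no input, with 200 uM small-molecule ligand, or with an oligonucleotide input. Apparent KD is the median per design over clusters, from curve fits of normalised cluster fluorescence.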

Where [1] appears, read: input ligand: microRNA oligo, concentration not stated.
Setting [2] is: Eterna round: R95, input ligand: microRNA oligo, concentration not stated.
[3] abbreviates: Eterna round: R95, input ligand: FMN 200 uM.
Setting [4] is: Eterna round: R95, input ligand: none.

With “AUGGAAGAGCAAUAGCUCUACAUGAGGAUCACCCAUGUAGGAAAUACUGGGUACAGCGGGCUUUUUGCUCGGCUUAU [Alacar Attempt 4] (Eterna round: R97, puzzle: Sensor, turn-off variant 1)”, the “apparent KD of MS2 coat protein” value is, setting by setting: (input ligand: FMN 200 uM) 0.364 µM; (input ligand: none) 0.412 µM.

“AUGGGUCCUCACGGAGCUACAUGAGGAUCACCCAUGUGGAUUGAGGAUAUCGUAAGCCGACGGCACGAGAAGGCAGUUUACUGU [Ex NG3 #97] (Eterna round: R96, puzzle: Exclusion NG 3)”: the “apparent KD of MS2 coat protein” value is, setting by setting: (input ligand: FMN 200 uM) 0.0475 µM; under setting [1], 0.0228 µM; (input ligand: none) 0.0235 µM.

As for “AUGGGUCCUCUCGGAGCUACAUGAGGAUCACCCAUGUGUAUUGAGGAUAUCCACUGCUCAGGACUGGAGAAGGCAGUGUACUGU [Ex NG3 #88] (Eterna round: R96, puzzle: Exclusion NG 3)”, the “apparent KD of MS2 coat protein” value was determined as 0.0562 µM (input ligand: FMN 200 uM), 0.0335 µM under setting [1] and 0.0599 µM (input ligand: none).

Turning to “AUGUUACAUGAGGAUCACCCAUGUCAGGAUAUCUAUCAUAGCAUAGAAAUAUGCGGGUAGAGAAGGGACUAUCC [ChP Ext 10-04-2015 #5] (puzzle: Exclusion 1)”, the “apparent KD of MS2 coat protein” value under setting [2] came out at 0.0147 µM.

As for “AUUACAUGAGGAUAUACAUGAGGAUCACCCAUGUAAAUAGCAGUGGUAGUCAACUCGAGUAGAAGGCGUAACGU [Eternabot (L1) Solution 51] (Eterna round: R97, puzzle: Exclusion 3)”, the “apparent KD of MS2 coat protein” value by setting is: (input ligand: FMN 200 uM) 0.0678 µM; (input ligand: none) 0.0587 µM.

“AUUAUACAUGUAGGAUAUCUGCACGUUUAGUGCAGAGAAGGACAUGAGGAUCACCCAUGUAGAUCAAUAAUAAUUAAUUUAAUU [ENG1/6-B2] (Eterna round: R96, puzzle: Exclusion NG 1)”: the “apparent KD of MS2 coat protein” value by setting is: (input ligand: FMN 200 uM) 0.889 µM; under setting [1], 0.203 µM; (input ligand: none) 0.202 µM.

As for “AUUAUAUAGUCAGGAUAUAGAAUAUUAUUUUAACAUGAGGAUCACCCAUGUAACCUUAUGUGUAGCUAGAAGGGACAUUUAUUA [Title] (Eterna round: R96, puzzle: Exclusion NG 2)”, the “apparent KD of MS2 coat protein” value under setting [1] turned out to be 0.0766 µM.

“AUUAUGUAAGGAUAUCUUACAUGUGACUUCGGUCACUGUUCAGAGAAGGUACAUGAGGAUCACCCAUGUAGAAC [Ex4-3: 46] (puzzle: Exclusion 4)”: under setting [2], the “apparent KD of MS2 coat protein” value was 0.018 µM.

Turning to “AUUAUGUUAGGAUAUGCUUAUGGUGGAUAAUCGGAUAUGAUGCAGAAGGGACAUGAGGAUCACCCAUGUACUGU [EX4 #23] (Eterna round: R97, puzzle: Exclusion 4)”, the “apparent KD of MS2 coat protein” value was found to be 0.0215 µM (input ligand: FMN 200 uM) and 0.0221 µM (input ligand: none).

For “AUUCAACAUGAGGAUCACCCAUGUGAGGAUAUGCGAGUGCAGACUUCGGUUUGAUAGAGCAGAAGGCGCAGGUA [EX1 #13] (Eterna round: R97, puzzle: Exclusion 1)”, the “apparent KD of MS2 coat protein” value runs as follows: (input ligand: FMN 200 uM) 0.0696 µM; (input ligand: none) 0.0308 µM.

Take “AUUCCAACUUGAGGAUAUUAGUGGAACAGCCACUGAGAAGGCAGAUAACACCCUCAUAAACAUGAGGAUCACCCAUGUAGGAGA [Eternabot solution 44] (Eterna round: R96, puzzle: Exclusion NG 1)”: the “apparent KD of MS2 coat protein” value is, setting by setting: (input ligand: FMN 200 uM) 0.132 µM; under setting [1], 0.0781 µM; (input ligand: none) 0.0863 µM.

In the case of “AUUCGGAUAGGAUAUACUUGAGGAUCACCCAAGUGUUUGAACUAUCGUGAUCUGAAGAGUAGAAGGAUCAUCAU [Atquedzaed] (Eterna round: R97, puzzle: Exclusion 3)”, the “apparent KD of MS2 coat protein” value worked out at 0.176 µM (input ligand: FMN 200 uM) and 0.0907 µM (input ligand: none).

“AUUGAUAGCACAGGAUAUUGAGAUUUGAAUUGACAAGAAGGGUGUACAUGAGGAUCACCCAUGUAAUGGUUGCCUCGUUGAUUA [JR_ExcNG1_Sub004] (Eterna round: R96, puzzle: Exclusion NG 1)”: the “apparent KD of MS2 coat protein” value was found to be 1.07 µM (input ligand: FMN 200 uM), 0.125 µM under setting [1] and 0.148 µM (input ligand: none).

Take “AUUGAUAUUGAGGAUAUGCUUUUAUUUGUACUAGCAGAAGGCGAUACAUGAGGAUCACCCAUGUUUAUGGAAGU [JR_E6_Sub088] (puzzle: Exclusion 6)”: the “apparent KD of MS2 coat protein” value by setting is: under setting [3], 0.0505 µM; under setting [2], 0.0356 µM; under setting [4], 0.0294 µM.

Turning to “AUUGUAUGAGGAUAUACACCAGUGGGAGUGUCUUGCGUGAUACAUGAGGAUCACCCAUGUAGAAGGCGUACUAC [Eternabot (L2) Solution 90] (Eterna round: R97, puzzle: Exclusion 2)”, the “apparent KD of MS2 coat protein” value (input ligand: FMN 200 uM) is 0.0369 µM and the “apparent KD of MS2 coat protein” value (input ligand: none) was found to be 0.016 µM.

For “AUUGUUUAUGUAGGAUAUGCCUGGCGUGCCUUUGCAGAAGGACAUGAGGAUCACCCAUGUAUUGCGGUCUGCGUUCAGAUCGCC [salish99_ExNG1_r4_035] (Eterna round: R96, puzzle: Exclusion NG 1)”, the “apparent KD of MS2 coat protein” value (input ligand: FMN 200 uM) stood at 0.0276 µM, the “apparent KD of MS2 coat protein” value under setting [1] is 0.0167 µM and the “apparent KD of MS2 coat protein” value (input ligand: none) turned out to be 0.0241 µM.

As for “AUUUAAACAUAGGAUAUCGAAUUUAUCAUUUAACGAGAAGGAUGAACAUGAGGAUCACCCAUGUGGUAUCAUGG [Mat - Exclusion 6 - JL Mod - D4] (puzzle: Exclusion 6)”, the “apparent KD of MS2 coat protein” value under setting [3] turned out to be 0.398 µM, the “apparent KD of MS2 coat protein” value under setting [2] was determined as 0.279 µM and the “apparent KD of MS2 coat protein” value under setting [4] was found to be 0.368 µM.

For “AUUUAACAUGAGGAUCACCCAUGUGAGGAUAUGCGAGUAUAGACUUCGGUCUGAUAGAGCAGAAGGCGCAGAUA [EX1 #8] (Eterna round: R97, puzzle: Exclusion 1)”, the “apparent KD of MS2 coat protein” value stood at 0.0677 µM (input ligand: FMN 200 uM) and 0.0559 µM (input ligand: none).

On to “AUUUAGAGAGGAUAUAUAUUUUAAAACAUGAGGAUCACCCAUGUAAUUUUAUGGGAGUAAAUAGAAGGCUCAUUUA [JMFs Solution 2] (puzzle: Exclusion 5)”, for which the “apparent KD of MS2 coat protein” value was determined as 0.0543 µM under setting [3], 0.0528 µM under setting [2] and 0.0531 µM under setting [4].

As to “AUUUAGCAAGUCAGAUCCUACAUGAGGAUCACCCAUGUUGUUCGUCUUAUUUGAAGACAACACAAAAGUGUUGUCUU [Omei Mir OFFv1 B5] (Eterna round: R97, puzzle: Sensor, turn-off variant 1)”, the “apparent KD of MS2 coat protein” value reads like this: (input ligand: FMN 200 uM) 0.0799 µM; (input ligand: none) 0.077 µM.

Consider “AUUUAUGGAGGAUAUACUUGAGGAUCACCCAAGUGGAGUCCCGUUUGGGCGGUAAAUAGUAGAAGGCCGUCCUA [jl-ex3-4.47 ViennaUCT mod] (Eterna round: R97, puzzle: Exclusion 3)”, for which the “apparent KD of MS2 coat protein” value is, setting by setting: (input ligand: FMN 200 uM) 0.0157 µM; (input ligand: none) 0.0142 µM.

On to “AUUUUGUGAGGAUAUGUGGCUUCGAUCGUGAAAUCGAGGCUACAGAAGGCACAUGAGGAUCACCCAUGUUCCUA [salish99_ex4_r4_117] (Eterna round: R97, puzzle: Exclusion 4)”, for which the “apparent KD of MS2 coat protein” value (input ligand: FMN 200 uM) came out at 0.178 µM and the “apparent KD of MS2 coat protein” value (input ligand: none) worked out at 0.0196 µM.

On to “CAAAGAUAAGGAUAUUGAAGGUUCGACAUGAGGAUCACCCAUGUUAUGUUGGAAAAGGGACAAGAAGGUAUGAAAU [salish99_ex5_r4_213] (Eterna round: R97, puzzle: Exclusion 5)”, for which the “apparent KD of MS2 coat protein” value (input ligand: FMN 200 uM) stood at 0.0415 µM and the “apparent KD of MS2 coat protein” value (input ligand: none) worked out at 0.0403 µM.

Take “CAAGUGUUAGGAUAUACCAGUUAAAUGCAGCUGCCGUCGGAGUAGAAGGGACAUGAGGAUCACCCAUGUCGGGA [Eternabot (L1) Solution 28] (Eterna round: R97, puzzle: Exclusion 4)”: the “apparent KD of MS2 coat protein” value was 0.0461 µM (input ligand: FMN 200 uM) and 0.0351 µM (input ligand: none).

As to “CAAUAACAAGCGAGAUCCUACAUGAGGAUCACCCAUGUGCUCGUCUUAUAAAGUACUAUCACGAAAGUGAUAGUACA [Mat - Sensor v3 - turn-off var 1 - Eli Mod - D63] (puzzle: Sensor v3, turn-off variant 1)”, the “apparent KD of MS2 coat protein” value is 0.0196 µM under setting [3], 0.034 µM under setting [2] and 0.0149 µM under setting [4].

“CAAUGACAUGAGGAUCACCCAUGUGAGGAUAUGGAGCGCGACCGCGCGGUCGCGUACACCAGAAGGCGCAGGAA [1st #69] (Eterna round: R97, puzzle: Exclusion 1)”: the “apparent KD of MS2 coat protein” value (input ligand: FMN 200 uM) was 0.0597 µM and the “apparent KD of MS2 coat protein” value (input ligand: none) worked out at 0.0294 µM.

As for “CACCUACAUGAGGAUCACCCAUGUCAGGAUAUCUUUGCUAAUAUGAAUAGAUGCGUAAAGAGAAGGGACAUUUC [EX1 C.8] (Eterna round: R97, puzzle: Exclusion 1)”, the “apparent KD of MS2 coat protein” value is 0.027 µM (input ligand: FMN 200 uM) and 0.0149 µM (input ligand: none).

Take “CAGAAACAUGAGGAUCACCCAUGUGAGGAUAUGCGUACGUUGUCCGUAGGCGACGUGCGCAGAAGGCGCAAAGG [Mat - Mod of JL D85] (puzzle: Exclusion 1)”: the “apparent KD of MS2 coat protein” value came out at 0.115 µM under setting [3], 0.0593 µM under setting [2] and 0.116 µM under setting [4].

For “CAGGAACCAGCAGGAUAUGUGCGGCUGCUAACGUGAACCAACAUGAGGAUCACCCAUGUAGGCACGCAGAAGGGCUCAGCCUGC [Orgevebe] (Eterna round: R96, puzzle: Exclusion NG 2)”, the “apparent KD of MS2 coat protein” value reads like this: (input ligand: FMN 200 uM) 0.00878 µM; under setting [1], 0.0106 µM; (input ligand: none) 0.0135 µM.

Turning to “CAGGUGUAAGGAUAUACCGGAUGGUCCAAAGCUUGGCAAAGACAUGAGGAUCACCCAUGUAGAAGGUACGUCCG [Eternabot (Original) Solution 21] (Eterna round: R97, puzzle: Exclusion 2)”, the “apparent KD of MS2 coat protein” value is, setting by setting: (input ligand: FMN 200 uM) 0.313 µM; (input ligand: none) 0.383 µM.

Regarding “CAGUACAGAGGAUAUACAUGAGGAUCACCCAUGUGUUUCAGCUAGGAGACUAGCGAAAGUAGAAGGCUGUACUU [salish99_ex3_r4_002] (Eterna round: R97, puzzle: Exclusion 3)”, the “apparent KD of MS2 coat protein” value turned out to be 0.023 µM (input ligand: FMN 200 uM) and 0.0113 µM (input ligand: none).
